Test results as given in US8198021.

How the values were obtained:
[1] = system: microcin J25
[2] = target: Escherichia coli RNA polymerase (RNAP) holoenzyme (Escherichia coli) (UniProt P0A7Z4); experiment: transcription assay at four NTP concentrations, fit to partial-competitive inhibition (7-mer and 8-mer abortive products); Ki called the reciprocal of the equilibrium binding constant for the MccJ25-RNAP interaction
[3] = target: Escherichia coli RNA polymerase (RNAP) holoenzyme (Escherichia coli) (UniProt P0A7Z4); experiment: fluorescence-detected abortive initiation assay (tri- and tetranucleotide synthesis), fit to partial-competitive inhibition

Substance | α, the factor by which MccJ25 increases KM for NTPs (7-mer and 8-mer abortive products) [1] | α, the factor by which MccJ25 increases KM for NTPs (fluorescence-detected abortive initiation, tri- and tetranucleotide synthesis) [1] | Ki [2] [nM] | Ki [3] [nM]
Escherichia coli RNA polymerase (RNAP) holoenzyme | 15 | α 8.7±2 |  | 
microcin J25 (peptide) |  |  | 1400 | 1200
